This is an account of results in publication PMC4359373, “Mechanistic insight into the conserved allosteric regulation of periplasmic proteolysis by the signaling molecule cyclic-di-GMP” (eLife, 2014).

This assay deals with L. pneumophila CdgS9 periplasmic output domain (CdgS9^Output, residues 22-152) (L. pneumophila). The assay can be described thus: […]; 25 mM Tris-HCl pH 7.4, 100 mM NaCl, 25°C; […].

As for “L. pneumophila CdgS9 periplasmic output domain (CdgS9^Output, residues 22-152) (domain or fragment)”, the stoichiometry N (usually the number of molecules, sites or subunits per partner or assembly) turned out to be 2.
L. pneumophila LapG (enzyme) returned a stoichiometry N (CdgS9^Output chains per LapG (2:1)) of 2.
